# What was measured:
# [1] = In vivo metabolic stability in venous blood plasma; design: species or system mouse; details: BALB/c mice, i.v., 60 min p.i., radio-HPLC, mean ± SEM, n = 3, listed as dimeric TM
# Procedure: For metabolic stability studies in vivo, normal male BALB/c mice (body weight: 23−26 g, Charles River Laboratories, Saint-Constant, QC, Canada) were anesthetized through inhalation of isoflurane in 40% oxygen/60% nitrogen (gas flow 1 L/min) prior to i.v. radiotracer injection via the tail vein. Mice were injected with 28-50 MBq of E5B9-^68Ga-NOTA-BBN2 TM, E5B9-^68Ga-NOTA-(BBN2)2 TM, or ^68Ga-NOTA-Ava-Glu-(BBN2)2 dimer in 150 μL of 10% EtOH/saline. Venous blood samples were collected at 5, 15, 30, and 60 min post-injection via the mouse tail vein and further processed. Blood cells were separated by centrifugation (13,000 rpm × 5 min). The supernatant was removed, and the contained proteins were precipitated by the addition of 2 volume parts of methanol (2 vol of MeOH/1 vol of the sample). Another centrifugation step (13,000 rpm × 5 min) was performed to obtain plasma. The clear plasma supernatant was injected into a Shimadzu HPLC system. The samples were analyzed using a Phenomenex Luna 10u C18(2) 100A, 250 × 4.6 mm column, at a constant flow rate of 1 mL/min, and the following gradient with water/0.2% TFA as solvent A and acetonitrile as solvent B: 0−3 min 10% B, 10 min 30% B, 17 min 50% B, 23 min 70% B, and 27−30 min 90% B. For each radiotracer (monomers and dimers with and without E5B9) blood samples from n = 3 mice were analyzed. […]
# [2] = Dynamic PET imaging, tumor uptake in PC3 xenografts; assay type: in vivo, mouse; details: male, BALB/c Nude, mouse, PC3 xenograft tumor, iv, total radioactivity; PC3 tumor-bearing mice, PET, 60 min p.i., i.v., mean ± SEM, n = 4-6; read-out: SUVmean,60min tumor uptake
# Procedure: (§1) For PET experiments and as prostate cancer xenograft models, male PC3 and LNCaP tumor-bearing BALB/c Nude mice were used (body weight: 22−24 g, Charles River Laboratories, Saint-Constant, QC, Canada). To generate the tumor xenografts, about 5−6 × 10^6 PC3 cells in 100 μL of PBS or 20−25 × 10^6 LNCaP cells in 200 μL of PBS/Matrigel (50/50) were subcutaneously injected into the left shoulder of male BALB/c Nude mice. For the androgen-dependent LNCaP model, a 1.5 mg pellet containing dehydroepiandrosterone DHEA (60-day release; Innovative Research of America, Sarasota, FL, U.S.A.) was implanted subcutaneously into the upper right flank shortly before LNCaP cell injection. PC3 tumors and LNCaP tumors reached sizes of ∼300−500 mm^3 after 3−5 weeks and 6−8 weeks, respectively, and were used for the in vivo experiments. PET imaging of E5B9-^68Ga-NOTA-BBN2 monomeric and dimeric TMs was performed on an INVEON® PET/CT scanner (Siemens Preclinical Solutions, Knoxville, TN, USA). Prior to radiotracer injection, mice were anesthetized through inhalation of isoflurane in 40% oxygen/60% nitrogen (gas flow 1 L/min), and body temperature was kept constant at 37 °C. The mice were placed in a prone position in the center of the field of view. A transmission scan for attenuation correction was not acquired. Mice were injected with 4−8 MBq of E5B9-^68Ga-NOTA-BBN2 or E5B9-^68Ga-NOTA-(BBN2)2 in 150 μL 10% EtOH/saline solution through a tail vein catheter. For blocking studies, PC3- and LNCaP-tumor-bearing […] mice were pre-dosed i.v. with 300 μg of Ava-BBN2 (15 min prior to radiotracer injection) in 50 uL saline. Data acquisition was performed over 60 min in 3D list mode. The dynamic list mode data were sorted into sinograms with 54 time frames (10 × 2, 8 × 5, 6 × 10, 6 × 20, 8 × 60, 10 × 120, 6 × 300 s). The frames were reconstructed using maximum a posteriori (MAP) as the reconstruction mode. No correction for partial volume effects was applied. The image files were processed using the ROVER v2.0.51 software (ABX GmbH, Radeberg, Germany). […] ROIs covered all visible tumor mass of the subcutaneous tumors, and the thresholds were defined by 50% of the maximum radioactivity uptake level. Mean standardized uptake values [SUVmean = (activity/mL tissue)/(injected activity/body weight), […]] were calculated for each ROI, and time−activity curves (TACs) were generated. For each experimental group (different radiotracers and mouse tumor models as well as control and blocking experiments), n = 3–6 mice were measured. […] Blocking experiments were conducted in the same mice: first, a control scan was measured and then repeated 1–2 days after in the presence of a blocking concentration of 300 μg of Ava-BBN2. All semi-quantified PET data are presented as means ± SEM. […]
# [3] = Dynamic PET imaging, tumor uptake in LNCaP xenografts; assay type: in vivo, mouse; details: male, BALB/c Nude, mouse, LNCaP xenograft tumor, iv, total radioactivity; LNCaP tumor-bearing mice, PET, 60 min p.i., i.v., mean ± SEM, n = 3-4; read-out: SUVmean,60min tumor uptake
# Procedure: as §1
# LNCaP tumors = experiment: as above; assay type: in vivo, mouse; details: LNCaP tumors, pre-dosing i.v. with 300 µg Ava-BBN2 15 min before radiotracer, n = 3, p < 0.01
# Procedure: as §1
structure (smiles),measurement,setting,value
"CC[C@H](C)[C@@H](CCC(=O)N[C@H](C(N)=O)C(C)(C)C)NC(=O)[C@H](Cc1c[nH]cn1)NC(=O)CN(C)C(=O)[C@@H](NC(=O)[C@H](C)NC(=O)[C@H](Cc1c[nH]c2ccccc12)NC(=O)[C@H](CCC(N)=O)NC(=O)CCCCNC(=O)CC[C@H](NC(=O)[C@H](CCCCn1nnc2c1-c1ccccc1CN(C(=O)CCNC(=O)CCOCCOCCOCCOCCNC(=O)CCN1C(=O)CC(SC[C@H](NC(=O)[C@H](Cc3ccc(O)cc3)NC(=O)[C@H](CCC(=O)O)NC(=O)[C@H](CC(=O)O)NC(=O)[C@@H](NC(=O)[C@@H](NC(=O)[C@H](CCC(=O)O)NC(=O)[C@@H]3CCCN3C(=O)[C@H](CC(C)C)NC(=O)[C@@H]3CCCN3C(=O)[C@H](CCCCN)NC(=O)[C@@H](N)CO)C(C)C)[C@@H](C)O)C(=O)O)C1=O)c1ccccc1-2)NC(=O)CCCCNC(=S)Nc1ccc(C[C@H]2CN(CC(=O)O)CCN(CC(=O)O)CCN2CC(=O)O)cc1)C(=O)NCCCCC(=O)N[C@@H](CCC(N)=O)C(=O)N[C@@H](Cc1c[nH]c2ccccc12)C(=O)N[C@@H](C)C(=O)N[C@H](C(=O)N(C)CC(=O)N[C@@H](Cc1c[nH]cn1)C(=O)N[C@H](CCC(=O)N[C@H](C(N)=O)C(C)(C)C)[C@@H](C)CC)C(C)C)C(C)C (stereo partly shown) [dimeric ^68Ga-(BBN2)2 TM, metal not drawn]",intact 68Ga-peptide remaining,[1],93 ± 1%
same,SUV at 1 h,[2],0.51 ± 0.1 SUV
same,SUV at 1 h,[3],0.38 ± 0.03 SUV
same,in vivo blocking of tumor uptake,LNCaP tumors,43 ± 3%
